{"source": "paper PMC3485210", "key": {"[1]": {"test_system": "G44P (Bacillus subtilis bacteriophage SPP1)", "experiment": "EMSA", "conditions": "EMSA: 50 mM Tris-HCl pH 7.5, 50 mM NaCl, 50 ng/ul BSA, 5% glycerol, 1 mM EDTA, 0.2 nM DNA, 37 C, 15 min (20 min in Fig 4 legend), 6% PAGE"}, "[2]": {"biological_target": "gene 44 product (G44P) of Bacillus subtilis bacteriophage SPP1 (Bacillus subtilis bacteriophage SPP1)", "experiment": "SEC; FPLC gel filtration on Superdex 75 in buffer A (50 mM phosphate pH 7.5, 5% glycerol, 1 mM EDTA) with 1 M NaCl, 0.5 ml/min; 30 µg protein in 200 µl; mass from a standard curve of Kav versus log10 of molecular mass"}}, "data": [{"substance": "CGCAAGCGACAGGAACCTCGAGAAGCTTCCGGTAGCAGCCTGAGCGGTGGTTGAATTCCTCGAGGTTCCTGTCGCTTGCG / CGCAAGCGACAGGAACCTCGAGGAATTCAACCACCGCTCAACTCAACTGCAGTCTAGACTCGAGGTTCCTGTCGCTTGCG / CGCAAGCGACAGGAACCTCGAGTCTAGACTGCAGTTGAGTCCTTGCTAGGACGGATCCCTCGAGGTTCCTGTCGCTTGCG / CGCAAGCGACAGGAACCTCGAGGGATCCGTCCTAGCAAGGGGCTGCTACCGGAAGCTTCTCGAGGTTCCTGTCGCTTGCG [HJ-J3]", "values": [{"measurement": "K half", "setting": "[1]", "result": 10, "unit": "nM"}]}, {"substance": "CGCAAGCGACAGGAACCTCGAGGAATTCAACCACCGCTCAACTCAACTGCAGTCTAGACTCGAGGTTCCTGTCGCTTGCG (double strand) [80-bp dsDNA]", "values": [{"measurement": "K half", "setting": "[1]; complexes unstable in gel", "result": 48, "unit": "nM"}]}, {"substance": "DL-D (D-loop)", "values": [{"measurement": "K half", "setting": "[1]", "result": 5, "unit": "nM"}]}, {"substance": "gene 44 product (G44P) of Bacillus subtilis bacteriophage SPP1 (enzyme)", "values": [{"measurement": "stoichiometry N", "setting": "[2]", "result": 2}]}]}
